US20220010021A1 (Sanofi, published 2022)

T1: human beta-Klotho (KLB) (human, UniProt Q86Z14 53-997)
T1 construct: Bought protein; also called human KLB; β-Klotho
T1 sequence (looked up): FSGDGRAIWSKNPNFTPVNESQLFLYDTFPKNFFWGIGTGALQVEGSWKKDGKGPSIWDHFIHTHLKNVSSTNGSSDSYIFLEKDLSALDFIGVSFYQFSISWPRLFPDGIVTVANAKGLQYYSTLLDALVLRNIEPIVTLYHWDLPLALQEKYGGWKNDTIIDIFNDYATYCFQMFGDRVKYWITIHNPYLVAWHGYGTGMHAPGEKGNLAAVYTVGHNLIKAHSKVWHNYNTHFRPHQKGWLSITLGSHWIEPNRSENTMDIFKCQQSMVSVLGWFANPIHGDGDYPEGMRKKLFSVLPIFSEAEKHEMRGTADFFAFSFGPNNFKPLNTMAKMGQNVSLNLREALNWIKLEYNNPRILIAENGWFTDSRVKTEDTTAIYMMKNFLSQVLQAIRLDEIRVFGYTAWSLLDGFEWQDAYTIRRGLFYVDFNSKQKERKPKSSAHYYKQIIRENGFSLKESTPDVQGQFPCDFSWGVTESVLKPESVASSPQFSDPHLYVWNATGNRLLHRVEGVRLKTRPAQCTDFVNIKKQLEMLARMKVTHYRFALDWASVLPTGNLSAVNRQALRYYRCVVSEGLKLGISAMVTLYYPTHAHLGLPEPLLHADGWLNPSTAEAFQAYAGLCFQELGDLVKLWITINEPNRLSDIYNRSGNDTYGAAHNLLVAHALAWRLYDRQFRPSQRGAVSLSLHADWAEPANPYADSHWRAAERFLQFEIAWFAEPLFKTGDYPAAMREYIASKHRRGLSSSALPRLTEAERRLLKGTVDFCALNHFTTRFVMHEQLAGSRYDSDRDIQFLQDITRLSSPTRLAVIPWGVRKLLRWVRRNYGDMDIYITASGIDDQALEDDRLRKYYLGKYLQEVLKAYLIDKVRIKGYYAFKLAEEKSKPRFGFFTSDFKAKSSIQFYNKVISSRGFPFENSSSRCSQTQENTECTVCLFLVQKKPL


How the values were obtained:
human beta-Klotho (KLB) = biological target: T1, human beta-Klotho (KLB); assay: BLI off-rate screening (Octet), crude supernatant;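 note: supernatants tested at 25 µg/mL, dissociation from biosensors recorded in D-PBS with 0.1% BSA over 1800 s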
[1] = biological target: cell surface receptor composed of FGFR1c and co-receptor beta-Klotho (KLB) (human, UniProt P11362 22-822; Q86Z14 1-1044); assay: cell-based or functional assay; for Mean E max, Luciferase reporter gene assay: reference of the scale not given here
Sequence of cell surface receptor composed of FGFR1c and co-receptor beta-Klotho (KLB) (P11362 22-822, chain 1 of 2): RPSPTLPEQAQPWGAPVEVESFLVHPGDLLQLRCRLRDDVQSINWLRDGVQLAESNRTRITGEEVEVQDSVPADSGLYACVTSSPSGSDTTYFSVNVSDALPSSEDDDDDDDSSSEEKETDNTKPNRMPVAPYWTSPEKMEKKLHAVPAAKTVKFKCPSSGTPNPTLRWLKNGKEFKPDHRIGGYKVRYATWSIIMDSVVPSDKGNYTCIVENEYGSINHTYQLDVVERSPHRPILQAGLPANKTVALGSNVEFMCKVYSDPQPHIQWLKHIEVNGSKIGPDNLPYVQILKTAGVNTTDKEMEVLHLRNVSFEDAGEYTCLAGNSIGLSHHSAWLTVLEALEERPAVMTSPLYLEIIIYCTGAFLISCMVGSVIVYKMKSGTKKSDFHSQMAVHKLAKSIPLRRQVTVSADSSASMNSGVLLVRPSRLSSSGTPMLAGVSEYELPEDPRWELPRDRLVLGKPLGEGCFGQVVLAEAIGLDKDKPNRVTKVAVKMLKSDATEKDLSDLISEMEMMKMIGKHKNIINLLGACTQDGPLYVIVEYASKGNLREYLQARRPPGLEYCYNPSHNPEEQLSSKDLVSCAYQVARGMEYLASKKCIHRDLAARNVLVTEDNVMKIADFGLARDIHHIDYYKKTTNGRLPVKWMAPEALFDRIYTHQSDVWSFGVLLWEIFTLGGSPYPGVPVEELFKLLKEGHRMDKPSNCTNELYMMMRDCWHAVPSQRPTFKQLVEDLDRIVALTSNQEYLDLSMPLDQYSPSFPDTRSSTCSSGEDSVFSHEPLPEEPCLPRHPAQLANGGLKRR
Sequence of cell surface receptor composed of FGFR1c and co-receptor beta-Klotho (KLB) (Q86Z14 whole entry, chain 2 of 2): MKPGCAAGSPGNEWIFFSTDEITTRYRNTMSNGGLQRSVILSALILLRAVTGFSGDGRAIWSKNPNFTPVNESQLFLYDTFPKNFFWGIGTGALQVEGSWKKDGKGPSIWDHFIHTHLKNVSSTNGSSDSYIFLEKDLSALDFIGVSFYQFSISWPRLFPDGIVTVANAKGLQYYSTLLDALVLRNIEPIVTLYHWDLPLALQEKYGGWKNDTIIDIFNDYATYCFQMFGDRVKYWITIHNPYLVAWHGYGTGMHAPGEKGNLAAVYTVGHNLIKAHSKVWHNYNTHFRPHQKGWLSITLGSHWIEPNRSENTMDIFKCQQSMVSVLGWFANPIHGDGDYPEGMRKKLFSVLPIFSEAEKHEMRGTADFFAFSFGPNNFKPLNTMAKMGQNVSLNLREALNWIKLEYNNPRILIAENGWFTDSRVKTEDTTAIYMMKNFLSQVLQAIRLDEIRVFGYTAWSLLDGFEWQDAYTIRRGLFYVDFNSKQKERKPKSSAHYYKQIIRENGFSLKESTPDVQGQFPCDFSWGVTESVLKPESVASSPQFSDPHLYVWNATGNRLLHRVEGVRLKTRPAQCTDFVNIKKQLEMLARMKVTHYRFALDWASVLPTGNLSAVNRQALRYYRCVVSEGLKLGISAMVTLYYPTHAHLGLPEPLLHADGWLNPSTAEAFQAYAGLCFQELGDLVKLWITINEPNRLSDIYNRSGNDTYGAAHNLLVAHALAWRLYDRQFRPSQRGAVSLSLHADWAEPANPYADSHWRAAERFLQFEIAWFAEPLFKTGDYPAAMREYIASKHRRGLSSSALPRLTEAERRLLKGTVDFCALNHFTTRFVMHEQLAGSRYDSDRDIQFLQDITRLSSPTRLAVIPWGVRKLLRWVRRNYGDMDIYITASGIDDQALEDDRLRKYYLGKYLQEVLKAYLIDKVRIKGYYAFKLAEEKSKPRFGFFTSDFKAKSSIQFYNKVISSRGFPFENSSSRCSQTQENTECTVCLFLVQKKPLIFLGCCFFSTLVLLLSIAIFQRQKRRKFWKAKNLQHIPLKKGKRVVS

Binder	koff (human beta-Klotho (KLB))	Mean E max, Luciferase reporter gene assay [1]	Mean EC50, Luciferase reporter gene assay [1]
16H7 light chain variant D95Y (antibody, IgG4, V domains shown, IgG4 backbone) VH: not shown VL: SYVLTQPPSVSVAPGQTARITCGGNNIGSESVHWYQQKPGQAPVLVVYDDSDRPSGIPERFSGSNSGNTATLTISRVEAGDEADYYCQVWDGNSYHVVFGGGTKLTVLG	0.00013 s⁻¹	4%	–
16H7 light chain variant H33M (antibody, IgG4, V domains shown, IgG4 backbone) VH: not shown VL: SYVLTQPPSVSVAPGQTARITCGGNNIGSESVMWYQQKPGQAPVLVVYDDSDRPSGIPERFSGSNSGNTATLTISRVEAGDEADYYCQVWDGNSDHVVFGGGTKLTVLG	5.2e-05 s⁻¹	102%	0.107 nM
16H7 light chain variant H96N (antibody, IgG4, V domains shown, IgG4 backbone) VH: not shown VL: SYVLTQPPSVSVAPGQTARITCGGNNIGSESVHWYQQKPGQAPVLVVYDDSDRPSGIPERFSGSNSGNTATLTISRVEAGDEADYYCQVWDGNSDNVVFGGGTKLTVLG	4.4e-05 s⁻¹	112%	0.143 nM
16H7 light chain variant H33L (antibody, IgG4, V domains shown, IgG4 backbone) VH: not shown VL: SYVLTQPPSVSVAPGQTARITCGGNNIGSESVLWYQQKPGQAPVLVVYDDSDRPSGIPERFSGSNSGNTATLTISRVEAGDEADYYCQVWDGNSDHVVFGGGTKLTVLG	5.5e-05 s⁻¹	114%	0.115 nM
16H7 light chain variant H96G (antibody, IgG4, V domains shown, IgG4 backbone) VH: not shown VL: SYVLTQPPSVSVAPGQTARITCGGNNIGSESVHWYQQKPGQAPVLVVYDDSDRPSGIPERFSGSNSGNTATLTISRVEAGDEADYYCQVWDGNSDGVVFGGGTKLTVLG	0.00015 s⁻¹	95%	0.13 nM
16H7 light chain variant H33Y (antibody, IgG4, V domains shown, IgG4 backbone) VH: not shown VL: SYVLTQPPSVSVAPGQTARITCGGNNIGSESVYWYQQKPGQAPVLVVYDDSDRPSGIPERFSGSNSGNTATLTISRVEAGDEADYYCQVWDGNSDHVVFGGGTKLTVLG	7.5e-05 s⁻¹	98%	0.12 nM
16H7 light chain variant H33Q (antibody, IgG4, V domains shown, IgG4 backbone) VH: not shown VL: SYVLTQPPSVSVAPGQTARITCGGNNIGSESVQWYQQKPGQAPVLVVYDDSDRPSGIPERFSGSNSGNTATLTISRVEAGDEADYYCQVWDGNSDHVVFGGGTKLTVLG	4.4e-05 s⁻¹	101%	0.131 nM
16H7 light chain variant H33D (antibody, IgG4, V domains shown, IgG4 backbone) VH: not shown VL: SYVLTQPPSVSVAPGQTARITCGGNNIGSESVDWYQQKPGQAPVLVVYDDSDRPSGIPERFSGSNSGNTATLTISRVEAGDEADYYCQVWDGNSDHVVFGGGTKLTVLG	6.8e-05 s⁻¹	99%	0.166 nM
16H7 light chain variant H33V (antibody, IgG4, V domains shown, IgG4 backbone) VH: not shown VL: SYVLTQPPSVSVAPGQTARITCGGNNIGSESVVWYQQKPGQAPVLVVYDDSDRPSGIPERFSGSNSGNTATLTISRVEAGDEADYYCQVWDGNSDHVVFGGGTKLTVLG	0.00018 s⁻¹	104%	0.147 nM
16H7 light chain variant H33N (antibody, IgG4, V domains shown, IgG4 backbone) VH: not shown VL: SYVLTQPPSVSVAPGQTARITCGGNNIGSESVNWYQQKPGQAPVLVVYDDSDRPSGIPERFSGSNSGNTATLTISRVEAGDEADYYCQVWDGNSDHVVFGGGTKLTVLG	0.00011 s⁻¹	113%	0.165 nM
16H7 light chain variant H33G (antibody, IgG4, V domains shown, IgG4 backbone) VH: not shown VL: SYVLTQPPSVSVAPGQTARITCGGNNIGSESVGWYQQKPGQAPVLVVYDDSDRPSGIPERFSGSNSGNTATLTISRVEAGDEADYYCQVWDGNSDHVVFGGGTKLTVLG	9.6e-05 s⁻¹	102%	0.12 nM
16H7 light chain variant H96Q (antibody, IgG4, V domains shown, IgG4 backbone) VH: not shown VL: SYVLTQPPSVSVAPGQTARITCGGNNIGSESVHWYQQKPGQAPVLVVYDDSDRPSGIPERFSGSNSGNTATLTISRVEAGDEADYYCQVWDGNSDQVVFGGGTKLTVLG	5e-05 s⁻¹	104%	0.106 nM
16H7 light chain variant H96L (antibody, IgG4, V domains shown, IgG4 backbone) VH: not shown VL: SYVLTQPPSVSVAPGQTARITCGGNNIGSESVHWYQQKPGQAPVLVVYDDSDRPSGIPERFSGSNSGNTATLTISRVEAGDEADYYCQVWDGNSDLVVFGGGTKLTVLG	0.00013 s⁻¹	98%	0.176 nM
16H7 light chain variant H96R (antibody, IgG4, V domains shown, IgG4 backbone) VH: not shown VL: SYVLTQPPSVSVAPGQTARITCGGNNIGSESVHWYQQKPGQAPVLVVYDDSDRPSGIPERFSGSNSGNTATLTISRVEAGDEADYYCQVWDGNSDRVVFGGGTKLTVLG	0.00014 s⁻¹	102%	0.095 nM
16H7 light chain variant H33I (antibody, IgG4, V domains shown, IgG4 backbone) VH: not shown VL: SYVLTQPPSVSVAPGQTARITCGGNNIGSESVIWYQQKPGQAPVLVVYDDSDRPSGIPERFSGSNSGNTATLTISRVEAGDEADYYCQVWDGNSDHVVFGGGTKLTVLG	9.7e-05 s⁻¹	104%	0.121 nM
16H7 light chain variant H33F (antibody, IgG4, V domains shown, IgG4 backbone) VH: not shown VL: SYVLTQPPSVSVAPGQTARITCGGNNIGSESVFWYQQKPGQAPVLVVYDDSDRPSGIPERFSGSNSGNTATLTISRVEAGDEADYYCQVWDGNSDHVVFGGGTKLTVLG	0.0001 s⁻¹	113%	0.122 nM
16H7 light chain variant H33A (antibody, IgG4, V domains shown, IgG4 backbone) VH: not shown VL: SYVLTQPPSVSVAPGQTARITCGGNNIGSESVAWYQQKPGQAPVLVVYDDSDRPSGIPERFSGSNSGNTATLTISRVEAGDEADYYCQVWDGNSDHVVFGGGTKLTVLG	0.00013 s⁻¹	96%	0.121 nM
16H7 light chain variant H96K (antibody, IgG4, V domains shown, IgG4 backbone) VH: not shown VL: SYVLTQPPSVSVAPGQTARITCGGNNIGSESVHWYQQKPGQAPVLVVYDDSDRPSGIPERFSGSNSGNTATLTISRVEAGDEADYYCQVWDGNSDKVVFGGGTKLTVLG	6.4e-05 s⁻¹	98%	0.179 nM
16H7 light chain variant H96E (antibody, IgG4, V domains shown, IgG4 backbone) VH: not shown VL: SYVLTQPPSVSVAPGQTARITCGGNNIGSESVHWYQQKPGQAPVLVVYDDSDRPSGIPERFSGSNSGNTATLTISRVEAGDEADYYCQVWDGNSDEVVFGGGTKLTVLG	1.1e-05 s⁻¹	100%	0.122 nM
16H7 light chain variant H33S (antibody, IgG4, V domains shown, IgG4 backbone) VH: not shown VL: SYVLTQPPSVSVAPGQTARITCGGNNIGSESVSWYQQKPGQAPVLVVYDDSDRPSGIPERFSGSNSGNTATLTISRVEAGDEADYYCQVWDGNSDHVVFGGGTKLTVLG	4.6e-06 s⁻¹	103%	–
16H7 light chain variant H33C (antibody, IgG4, V domains shown, IgG4 backbone) VH: not shown VL: SYVLTQPPSVSVAPGQTARITCGGNNIGSESVCWYQQKPGQAPVLVVYDDSDRPSGIPERFSGSNSGNTATLTISRVEAGDEADYYCQVWDGNSDHVVFGGGTKLTVLG	6.8e-05 s⁻¹	108%	0.123 nM
16H7 light chain variant H33T (antibody, IgG4, V domains shown, IgG4 backbone) VH: not shown VL: SYVLTQPPSVSVAPGQTARITCGGNNIGSESVTWYQQKPGQAPVLVVYDDSDRPSGIPERFSGSNSGNTATLTISRVEAGDEADYYCQVWDGNSDHVVFGGGTKLTVLG	0.00014 s⁻¹	99%	0.114 nM
16H7 light chain variant H33E (antibody, IgG4, V domains shown, IgG4 backbone) VH: not shown VL: SYVLTQPPSVSVAPGQTARITCGGNNIGSESVEWYQQKPGQAPVLVVYDDSDRPSGIPERFSGSNSGNTATLTISRVEAGDEADYYCQVWDGNSDHVVFGGGTKLTVLG	3.6e-05 s⁻¹	100%	0.121 nM
16H7 light chain variant H96D (antibody, IgG4, V domains shown, IgG4 backbone) VH: not shown VL: SYVLTQPPSVSVAPGQTARITCGGNNIGSESVHWYQQKPGQAPVLVVYDDSDRPSGIPERFSGSNSGNTATLTISRVEAGDEADYYCQVWDGNSDDVVFGGGTKLTVLG	2.2e-05 s⁻¹	100%	0.111 nM
